The test system of assay [1] is downstream signaling of the Tie2 receptor (Akt phosphorylation) in HUVECs. As to the kind of experiment: Akt phosphorylation in HUVECs by humanized anti-Ang2 antibodies (immunoblot). Format: cell-based, human. Particulars: hAng2 1 μg/ml, 30 min, antibody 0.5 μg/ml, maintained until 50 μg/ml. The method, then: To investigate whether the humanized anti-Ang2 antibodies induce the downstream signaling of the Tie2 receptor in endothelial cells, HUVECs (LONZA™) were treated with human Ang2 protein together with humanized anti-Ang2 antibody. Then, the level of Akt phosphorylation, the main downstream signaling protein of Tie2 receptor was measured by immunoblotting. To compare the degree of Akt activation, cells were treated with full-length hAng2 (R&D® Systems) alone or antibody alone in the experiment.
Specifically, HUVEC cells (1×10^5 cells/ml) were cultured in EGM-2 (LONZA™) at 37° C. in 60 mm culture dish. Cells of 90% confluency were incubated with EBM-2 (LONZA™) for 4 hrs. The serum-starved HUVECs were treated with the mixture of anti-Ang2 antibody and hAng2 protein (1 μg/ml, R&D® Systems), and further incubated for 30 min. The cells were washed with cold PBS, treated with lysis buffer, and lysed at 4° C. for 20 min. Then, the cell lysates were prepared by centrifugation at 13000 rpm for 15 min. 5× SDS sample buffer was added to the cell lysate and the mixture was boiled at 95° C. for 5 min. Then, the mixture was subjected to SDS-PAGE and subsequent Western blotting.
To investigate the phosphorylation of Akt, the membrane was blocked with 5% skim milk-containing TBST for 1 hr at RT, and incubated with anti-phospho-Akt antibody (S473) at 4° C. for about 8 hrs. […]
A general note: Immunoblotting shows a protein as a band on a membrane.

In assay [2] the test system is tumor vessels of LLC tumor. As to the kind of experiment: Tumor vessel normalization (CD31, PDGFRβ immunofluorescence) in LLC tumors. Type of assay: in vivo, C57BL/6 mice. Particulars: compared with Fc or Fc+Cpt. The source says:
In order to investigate the changes in tumor vessels by 2C811 antibody, we obtained frozen sections of tumor samples and performed immunofluorescence analyses by staining with a blood vessel-specific marker, CD31, and pericyte-specific marker, PDGFRβ. In detail, the tumor samples were harvested from the mice from the experiment described in Example 8, which were fixed in 4% paraformaldehyde (PFA, Merck), dehydrated in 30% sucrose (Junsei), embedded in OCT compound (Leica), and sectioned using a cryostat (Leica). The resulting frozen sections were blocked for 1 hr using a Protein Blocking Buffer (DAKO). Then the sections were stained with hamster anti-CD31 antibody (1:200, Millipore®) and rat anti-PDGFRB antibody (1:200, eBioscience™) in PBS at 4° C. for 8 hrs. After washing 3 times with PBS, the sections were stained with ALEXA FLUOR® 488-conjugated anti-hamster IgG antibody and Alexa ALEXA FLUOR® 594-conjugated anti-rat IgG antibody (1:1000, Jackson Immunoresearch) in PBS for 1 hr at room temperature. After another 3 washes with PBS, the sections were mounted in fluorescence mounting medium (DAKO) using a coverslip (Marienfeld). The stained sections were imaged using LSM880 confocal microscope (Zeiss). […]

In assay [3] the test system is choroidal neovascularization (CNV). Briefly: Laser-induced CNV model, subcutaneous injection: CNV inhibition. Type of assay: in vivo, mice. Particulars: 25 mg/kg subcutaneous at 1 day; 8 days after laser photocoagulation. As for the experimental part:
To determine the effect of subcutaneously injected 2C8H11 antibody in CNV inhibition, the subcutaneous administration of 2C8H11 antibody (25 mg/kg) was performed at 1 day after laser photocoagulation. As a control, Fc (25 mg/kg) was administered in a same manner to the mice. Anti-CD31 antibody (1:200, Millipore®) was used for the detection of endothelial cells of CNV, and CD31+CNV volumes of the RPE-choroid-sclera flat mounts were calculated using the MATLAB® Image Processing Toolbox™(Math Works) at 8 days after laser photocoagulation (FIG. 16A).

For assay [4], the system named is choroidal neovascularization (CNV) / choriocapillaris. As to the kind of experiment: Laser-induced CNV model, OCTA: CNV volume and choriocapillary regeneration (avascular space). Format: in vivo, mice. The following applies: for reduction of the avascular space: 5 μg intravitreal at 7 days, change from baseline. The method, then:
To determine the effect of 2C8H11 in CNV regression and choriocapillary regeneration after establishment of CNV, Fc, VEGF-Trap, control antibody or 2C8H11 (5 μg each) was given intravitreally to the mice by the Nanoliter 2000 micro-injector (World Precision Instruments) at 7 days after laser photocoagulation. Intra-vital optical coherence tomography angiography (OCTA) was performed at 6, 14, 21, and 35 days after laser photocoagulation (FIG. 14A). The retinochoroidal layers were imaged using a prototype high-speed swept-source optical coherence tomography (OCT) system, utilizing a custom ring cavity wavelength-swept laser centered at 1048 nm with an A-scan rate of 230 kHz. OCT images were collected in a 1.7 mm×1.7 mm field of view within the retino-choroidal layer to monitor regeneration of choroidal vasculatures at the site of laser photocoagulation after intravitreal injection of reagents. […] Then, by using automatic layer flattening and segmentation algorithms, cross-sectional OCT angiograms were flattened to RPE, and en face OCT angiograms were generated by separate projection of each flattened cross-sectional OCT angiogram in three depth ranges: inner retinal, outer retinal and choroidal layers. The outer plexiform layer and Bruch's membrane were defined as the boundaries separating inner retinal, outer retinal, and choroidal layers. The density of retina and choroid vessel was automatically calculated as the proportion of measured area occupied by flowing blood vessels defined as pixels having decorrelation values above the threshold level. Avascular pixels were detected from the en face OCT angiogram representing choroidal layer by means of the image processing toolbox of MATLAB® (Math Works). Then the total volume of the avascular space surrounding the laser injury site was calculated by summing the number of avascular pixels multiplied by the volume of one pixel. In order to analyze the changing complexion of avascular space volume, serially measured values in each eye were transformed into percentage change from baseline value. […] Overall, these findings indicate that both 2C8H11 and […] promotes regeneration of the choriocapillaris, while VEGF-Trap leads to choriocapillary regression in the laser-induced CNV model.

B1: 2C8H11: humanized anti-Ang2 human IgG1 antibody from mouse 2C8; VH SEQ ID NO: 55, VL SEQ ID NO: 56 (antibody, V domains shown)
VH: QVQLVQSGAEVKKPGASVKVSCKASGYTFTSYWMHWVRQAPGQGLEWMGMIDPSDSETRLNQKFKDRVTMTRDTSTSTVYMELSSLRSEDTAVYYCARRFYYGSDWYFDVWGQGTLVTVSS
VL: DIQLTQSPSFLSASVGDRVTITCKASQDVGTAVAWYQQKPGKAPKLLIYWASTRHTGVPSRFSGSGSGTEFTLTISSLQPEDFATYYCQQYSSYPLTFGQGTKVEIK
modifications: human IgG1 constant regions; VH; VL
For the molecule B1, the Akt phosphorylation entry in assay [1] is given as “increased markedly”. In addition, in assay [2], the “PDGFRβ+ pericyte coverage increase” value was determined as 2.4 fold. The “tumor blood vessel (BV) density reduction” value in assay [2] stood at 56%. The “inhibition of CNV formation compared with Fc (CD31+ CNV volume)” value in assay [3] is listed as 69.9%. The “CNV volume in outer retinas (OCTA)” value in assay [4] (5 μg intravitreal at 7 days after laser photocoagulation) was “markedly reduced CNV volume”. For the same molecule, the “reduction of the avascular space” value in assay [4] (14 days after laser photocoagulation) is 30.1%; in assay [4] (21 days after laser photocoagulation), 36.4%; in assay [4] (35 days after laser photocoagulation), 37.0%.

These data come from patent publication US12331106B2, “Anti-angiopoietin-2 antibodies that induce Tie2 activation” (Institute for Basic Science, priority 2018, dated 2025).
